Results on one substance are retold here after patent US20250011422A1.

Test [1] addresses human Siglec-6 on the cell surface (U937, MEC1-002, MEC1-hS6, primary CLL cells) (human) (UniProt O43699). The experiment in a line: quantitative flow cytometry, primary CLL cells (live, CD20+ CD5+), CLL patient 2691.
For test [2] the target is unchanged. In words: quantitative flow cytometry, primary CLL cells (live, CD20+ CD5+), CLL patient 3071. For orientation: A flow cytometer gives signals particle by particle.
Test [3] has the same target. The experiment in a line: quantitative flow cytometry, primary CLL cells (live, CD20+ CD5+), CLL patient 4705.
Test [4] shares this target. In words: quantitative flow cytometry, primary CLL cells (live, CD20+ CD5+), CLL patient 4973.
Test [5] shares this target. In words: quantitative flow cytometry, primary CLL cells (live, CD20+ CD5+), CLL patient 8242.
The target is the same in test [6]. The experiment in a line: quantitative flow cytometry, primary CLL cells (live, CD20+ CD5+), CLL patient 11944.
The target is the same in test [7]. In words: quantitative flow cytometry with bead calibration standard, cell line MEC1-002.

Sequence of human Siglec-6 on the cell surface (U937, MEC1-002, MEC1-hS6, primary CLL cells) (human) (O43699 27-453): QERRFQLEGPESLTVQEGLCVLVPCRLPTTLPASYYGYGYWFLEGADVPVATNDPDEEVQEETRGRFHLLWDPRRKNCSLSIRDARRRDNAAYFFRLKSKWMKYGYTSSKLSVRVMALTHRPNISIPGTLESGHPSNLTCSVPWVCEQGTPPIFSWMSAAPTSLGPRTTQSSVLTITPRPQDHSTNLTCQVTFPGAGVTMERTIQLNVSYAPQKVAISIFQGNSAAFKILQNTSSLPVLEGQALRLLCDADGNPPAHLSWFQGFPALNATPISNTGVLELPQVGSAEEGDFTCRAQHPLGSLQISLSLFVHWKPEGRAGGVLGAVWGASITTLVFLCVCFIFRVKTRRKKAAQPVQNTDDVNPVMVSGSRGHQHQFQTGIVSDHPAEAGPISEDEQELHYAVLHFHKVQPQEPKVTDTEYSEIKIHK

In the case of “commercial mouse anti-human Siglec-6 mAb clone 767329 (R&D Systems) (antibody)”, the Siglec-6 (ABC-isotype) stood at 6040 ABC in test [1]; 1540 ABC in test [2]; 2430 ABC in test [3]; 3670 ABC in test [4]; 843 ABC in test [5]; 3580 ABC in test [6]. The Siglec-6 (ABC-isotype) in test [7] is 1450 ABC.
